Data: the supplement of paper PMC10065799, “High-throughput profiling of sequence recognition by tyrosine kinases and SH2 domains using bacterial peptide display” (eLife, 2023)

What was measured:
EPHB2 = EPHB2 (UniProt P29323); test: phosphorylation enrichment, bacterial display (enrichment ratio); higher = better substrate or ligand; peptides without Tyr show the background
Fes = Fes (UniProt P07332); test: as above
Fer (mouse) = test: as above
MERTK = MERTK (UniProt Q12866); test: as above
FGFR1 = FGFR1 (UniProt P11362); test: as above
c-Src = test: as above
FGFR3 = FGFR3 (UniProt P22607); test: as above
AncSZ = test: as above
Hck = Hck (UniProt P08631); test: as above
Fyn = Fyn (UniProt P06241); test: as above
Jak2 = Jak2 (UniProt O60674); test: as above
c-Abl (mouse) = test: as above
EPHB1 = EPHB1 (UniProt P54762); test: as above
Grb2 SH2 = Grb2 SH2 (UniProt P62993); test: SH2 binding enrichment of the phosphorylated peptide, bacterial display (enrichment ratio); higher = better substrate or ligand; peptides without Tyr show the background
SHP2-C SH2 = test: as above
c-Src SH2 = test: as above
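Wherever SH2 binding enrichment of the phosphorylated peptide, bacterial display is given: peptide library displayed on the E. coli surface as eCPX fusions, selected cells deep-sequenced, score is each peptide's frequency after selection divided by its frequency in the input.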
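Wherever phosphorylation enrichment, bacterial display is given: 11-residue human phosphosite peptides and single-mutation variants displayed on the E. coli surface, counted by deep sequencing, each peptide's frequency after selection divided by its frequency in the unselected input library; frequency after pTyr selection over input frequency; kinase dosed for 20-30% of maximal phosphorylation in three min.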

Chain of FGFR1 (P11362 whole entry, looked up): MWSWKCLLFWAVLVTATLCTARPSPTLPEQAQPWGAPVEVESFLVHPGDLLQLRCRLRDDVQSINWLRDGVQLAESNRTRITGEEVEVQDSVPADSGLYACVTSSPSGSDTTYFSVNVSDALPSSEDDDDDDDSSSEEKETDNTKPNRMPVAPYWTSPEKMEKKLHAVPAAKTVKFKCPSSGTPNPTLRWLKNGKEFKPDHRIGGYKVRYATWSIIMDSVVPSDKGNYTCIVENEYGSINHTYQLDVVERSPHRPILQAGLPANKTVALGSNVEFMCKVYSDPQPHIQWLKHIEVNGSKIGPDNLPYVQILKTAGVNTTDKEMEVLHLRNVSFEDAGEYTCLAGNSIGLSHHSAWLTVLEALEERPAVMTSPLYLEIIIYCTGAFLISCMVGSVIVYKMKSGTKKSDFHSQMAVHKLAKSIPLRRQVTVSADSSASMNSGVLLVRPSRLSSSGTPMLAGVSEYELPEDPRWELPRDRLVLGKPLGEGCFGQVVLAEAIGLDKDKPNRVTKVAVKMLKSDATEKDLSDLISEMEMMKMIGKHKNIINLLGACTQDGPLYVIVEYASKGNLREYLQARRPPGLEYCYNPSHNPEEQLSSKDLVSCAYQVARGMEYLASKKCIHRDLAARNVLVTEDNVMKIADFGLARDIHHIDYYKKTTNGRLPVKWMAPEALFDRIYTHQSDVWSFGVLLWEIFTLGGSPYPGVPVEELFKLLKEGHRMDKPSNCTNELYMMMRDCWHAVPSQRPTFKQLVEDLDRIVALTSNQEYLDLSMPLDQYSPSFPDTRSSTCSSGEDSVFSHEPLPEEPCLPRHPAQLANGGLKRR
Chain of FGFR3 (P22607 whole entry, looked up): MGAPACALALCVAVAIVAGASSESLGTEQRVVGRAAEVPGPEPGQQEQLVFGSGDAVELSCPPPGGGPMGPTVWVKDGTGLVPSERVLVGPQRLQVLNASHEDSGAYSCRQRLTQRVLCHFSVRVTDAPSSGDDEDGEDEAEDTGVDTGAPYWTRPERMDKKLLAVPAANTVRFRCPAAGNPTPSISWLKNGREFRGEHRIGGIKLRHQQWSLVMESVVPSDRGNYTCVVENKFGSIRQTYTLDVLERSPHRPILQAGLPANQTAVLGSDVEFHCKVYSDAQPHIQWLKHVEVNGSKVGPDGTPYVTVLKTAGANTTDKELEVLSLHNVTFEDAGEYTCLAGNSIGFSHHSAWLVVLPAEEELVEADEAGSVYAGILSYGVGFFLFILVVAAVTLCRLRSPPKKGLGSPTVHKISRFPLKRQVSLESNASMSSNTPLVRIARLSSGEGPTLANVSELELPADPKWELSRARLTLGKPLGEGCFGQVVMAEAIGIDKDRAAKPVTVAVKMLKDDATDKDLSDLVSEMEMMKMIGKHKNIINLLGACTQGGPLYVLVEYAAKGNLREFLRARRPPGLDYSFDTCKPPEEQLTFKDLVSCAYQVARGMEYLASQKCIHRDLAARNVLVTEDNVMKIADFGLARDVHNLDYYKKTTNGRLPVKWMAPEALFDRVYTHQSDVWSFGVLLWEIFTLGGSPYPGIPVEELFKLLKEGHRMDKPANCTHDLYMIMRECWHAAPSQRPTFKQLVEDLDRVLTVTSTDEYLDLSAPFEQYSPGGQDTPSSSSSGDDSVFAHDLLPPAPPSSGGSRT
Chain of Grb2 SH2 (P62993 whole entry, looked up): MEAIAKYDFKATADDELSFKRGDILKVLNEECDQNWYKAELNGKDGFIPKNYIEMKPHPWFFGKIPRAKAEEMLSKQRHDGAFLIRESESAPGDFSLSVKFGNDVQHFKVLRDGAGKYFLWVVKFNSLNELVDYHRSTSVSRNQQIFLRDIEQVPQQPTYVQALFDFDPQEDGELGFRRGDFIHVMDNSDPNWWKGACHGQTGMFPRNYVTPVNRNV
Chain of Jak2 (O60674 whole entry, looked up): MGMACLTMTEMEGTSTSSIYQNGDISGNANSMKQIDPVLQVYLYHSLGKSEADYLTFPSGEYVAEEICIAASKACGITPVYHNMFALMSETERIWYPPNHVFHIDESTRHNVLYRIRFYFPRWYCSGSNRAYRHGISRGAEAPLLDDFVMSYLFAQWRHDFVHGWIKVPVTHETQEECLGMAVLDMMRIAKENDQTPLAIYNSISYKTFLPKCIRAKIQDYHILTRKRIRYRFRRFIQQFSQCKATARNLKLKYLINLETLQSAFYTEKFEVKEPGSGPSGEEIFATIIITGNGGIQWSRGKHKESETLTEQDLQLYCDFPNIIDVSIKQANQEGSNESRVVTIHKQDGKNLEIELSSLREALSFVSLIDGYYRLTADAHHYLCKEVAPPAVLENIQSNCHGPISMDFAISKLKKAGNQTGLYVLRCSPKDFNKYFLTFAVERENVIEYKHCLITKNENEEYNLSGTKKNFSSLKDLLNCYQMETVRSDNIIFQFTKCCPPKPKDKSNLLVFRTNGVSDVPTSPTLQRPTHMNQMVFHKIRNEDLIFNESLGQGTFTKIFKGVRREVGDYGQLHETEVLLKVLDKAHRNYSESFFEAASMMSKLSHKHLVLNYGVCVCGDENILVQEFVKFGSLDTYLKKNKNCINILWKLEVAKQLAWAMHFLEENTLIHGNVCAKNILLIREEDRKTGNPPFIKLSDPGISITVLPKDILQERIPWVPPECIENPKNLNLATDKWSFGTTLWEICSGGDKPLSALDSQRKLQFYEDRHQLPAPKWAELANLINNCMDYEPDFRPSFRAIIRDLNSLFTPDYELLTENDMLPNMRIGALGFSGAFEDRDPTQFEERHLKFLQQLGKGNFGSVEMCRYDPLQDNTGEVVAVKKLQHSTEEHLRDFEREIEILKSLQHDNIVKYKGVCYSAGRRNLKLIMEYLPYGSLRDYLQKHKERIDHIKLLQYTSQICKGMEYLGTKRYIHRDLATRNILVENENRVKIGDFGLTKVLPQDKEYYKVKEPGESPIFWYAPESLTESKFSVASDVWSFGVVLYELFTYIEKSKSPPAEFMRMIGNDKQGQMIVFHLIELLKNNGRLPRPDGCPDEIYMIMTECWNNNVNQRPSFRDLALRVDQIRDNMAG
Chain of EPHB1 (P54762 whole entry, looked up): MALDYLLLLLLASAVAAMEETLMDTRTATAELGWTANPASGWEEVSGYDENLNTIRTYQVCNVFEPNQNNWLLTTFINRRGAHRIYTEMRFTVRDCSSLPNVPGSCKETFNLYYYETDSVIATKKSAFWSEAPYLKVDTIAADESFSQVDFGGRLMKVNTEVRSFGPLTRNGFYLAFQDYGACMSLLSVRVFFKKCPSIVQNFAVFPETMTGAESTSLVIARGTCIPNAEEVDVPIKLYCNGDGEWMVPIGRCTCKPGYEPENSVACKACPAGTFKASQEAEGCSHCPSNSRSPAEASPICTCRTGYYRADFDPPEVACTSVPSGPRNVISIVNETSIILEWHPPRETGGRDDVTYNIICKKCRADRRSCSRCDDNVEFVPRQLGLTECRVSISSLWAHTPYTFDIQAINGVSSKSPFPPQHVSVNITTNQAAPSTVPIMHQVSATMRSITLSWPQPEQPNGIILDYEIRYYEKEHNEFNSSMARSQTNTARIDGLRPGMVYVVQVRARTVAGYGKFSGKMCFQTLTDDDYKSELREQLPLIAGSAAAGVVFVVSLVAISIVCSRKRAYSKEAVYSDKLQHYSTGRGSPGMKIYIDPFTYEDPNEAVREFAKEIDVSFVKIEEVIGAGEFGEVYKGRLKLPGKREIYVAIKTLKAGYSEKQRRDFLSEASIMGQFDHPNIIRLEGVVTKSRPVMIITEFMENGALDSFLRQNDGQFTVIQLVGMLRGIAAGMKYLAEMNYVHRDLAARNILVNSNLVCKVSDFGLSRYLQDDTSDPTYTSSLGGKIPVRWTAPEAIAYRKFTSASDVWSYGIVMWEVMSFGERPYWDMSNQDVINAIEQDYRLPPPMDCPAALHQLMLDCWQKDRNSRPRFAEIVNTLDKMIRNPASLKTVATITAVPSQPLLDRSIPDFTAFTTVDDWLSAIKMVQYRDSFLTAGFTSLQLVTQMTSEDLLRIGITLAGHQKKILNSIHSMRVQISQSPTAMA
Chain of EPHB2 (P29323 whole entry, looked up): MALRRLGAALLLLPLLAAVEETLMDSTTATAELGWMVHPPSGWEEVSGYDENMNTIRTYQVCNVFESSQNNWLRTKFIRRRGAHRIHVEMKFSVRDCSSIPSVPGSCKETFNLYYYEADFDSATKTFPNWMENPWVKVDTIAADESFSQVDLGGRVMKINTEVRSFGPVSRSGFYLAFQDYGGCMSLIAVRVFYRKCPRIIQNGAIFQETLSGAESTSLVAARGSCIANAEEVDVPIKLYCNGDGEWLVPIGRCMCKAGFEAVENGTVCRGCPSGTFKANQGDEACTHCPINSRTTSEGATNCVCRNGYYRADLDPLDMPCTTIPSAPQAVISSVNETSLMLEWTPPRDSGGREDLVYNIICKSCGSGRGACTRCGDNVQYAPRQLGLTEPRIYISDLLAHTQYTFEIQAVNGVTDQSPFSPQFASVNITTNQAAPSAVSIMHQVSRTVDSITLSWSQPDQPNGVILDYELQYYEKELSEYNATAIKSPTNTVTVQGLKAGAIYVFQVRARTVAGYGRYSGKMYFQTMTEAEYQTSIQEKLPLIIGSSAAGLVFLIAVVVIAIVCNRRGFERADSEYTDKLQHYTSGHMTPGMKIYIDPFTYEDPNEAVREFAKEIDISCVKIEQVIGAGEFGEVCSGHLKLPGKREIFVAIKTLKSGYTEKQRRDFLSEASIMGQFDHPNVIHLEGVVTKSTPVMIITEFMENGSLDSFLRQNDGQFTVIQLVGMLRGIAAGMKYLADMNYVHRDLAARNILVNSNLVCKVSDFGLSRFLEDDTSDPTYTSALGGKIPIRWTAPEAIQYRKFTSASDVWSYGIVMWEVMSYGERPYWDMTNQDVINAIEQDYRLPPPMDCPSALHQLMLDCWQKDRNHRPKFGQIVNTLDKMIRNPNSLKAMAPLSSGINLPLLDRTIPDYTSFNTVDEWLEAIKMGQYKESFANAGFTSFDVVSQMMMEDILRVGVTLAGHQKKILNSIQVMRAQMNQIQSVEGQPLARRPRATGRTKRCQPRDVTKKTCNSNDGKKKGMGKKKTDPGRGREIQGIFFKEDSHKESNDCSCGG

Row | Sequence | phosphorylation enrichment (EPHB2) | phosphorylation enrichment (Fes) | phosphorylation enrichment (Fer (mouse)) | phosphorylation enrichment (MERTK) | phosphorylation enrichment (FGFR1) | phosphorylation enrichment (c-Src) | phosphorylation enrichment (FGFR3) | phosphorylation enrichment (AncSZ) | phosphorylation enrichment (Hck) | phosphorylation enrichment (Fyn) | phosphorylation enrichment (Jak2) | phosphorylation enrichment (c-Abl (mouse)) | phosphorylation enrichment (EPHB1) | SH2 binding enrichment (Grb2 SH2) | SH2 binding enrichment (SHP2-C SH2) | SH2 binding enrichment (c-Src SH2)
1 | NHYKIHNLCAE [PTEN_Y68_Y68H] | 0.614 | 0.823 | 0.463 | 0.435 | 0.493 | 0.492 | 0.58 | 0.593 | 0.476 | 0.421 | 0.706 | 0.696 | 0.56 | 1.08 | 1.02 | 0.554
2 | NKEAICSGYIR [SMCHD1_Y283_Y283C] | 0.547 | 0.903 | 0.446 | 0.42 | 0.509 | 0.399 | 0.71 | 0.794 | 0.424 | 0.369 | 0.875 | 1.3 | 0.52 | 0.761 | 0.462 | 0.436
3 | NKHTNYTMEHI [ACTN1_Y708] | 0.401 | 0.549 | 0.36 | 0.358 | 0.404 | 0.381 | 0.296 | 0.509 | 0.384 | 0.388 | 0.421 | 0.352 | 0.35 | 0.814 | 0.603 | 0.458
4 | NLRQQYNSPQE [UMPS_Y432_G429R] | 0.439 | 0.587 | 0.345 | 0.293 | 0.464 | 0.316 | 0.43 | 0.634 | 0.451 | 0.437 | 0.592 | 0.354 | 0.382 | 0.829 | 0.769 | 0.635
5 | NLSVRYDSSLK [ABCC8_Y1353] | 0.457 | 0.98 | 0.422 | 0.381 | 0.446 | 0.492 | 0.633 | 0.68 | 0.473 | 0.353 | 0.847 | 0.55 | 0.515 | 0.887 | 0.863 | 0.587
6 | NNKKDYYDMYE [SLC26A3_Y526_K521N] | 1.52 | 1.04 | 0.544 | 0.483 | 8.57 | 0.591 | 6.01 | 1.47 | 0.728 | 0.792 | 0.735 | 0.537 | 2.03 | 0.753 | 0.54 | 1.57
7 | NPQKSYFICLF [WAS_Y83_R86C_YF] | 0.523 | 1.27 | 0.496 | 0.43 | 0.632 | 0.504 | 0.757 | 1.1 | 0.448 | 0.39 | 1.13 | 1 | 0.525 | 0.988 | 1.03 | 0.602
8 | NPQKSYFIHLY [WAS_Y83_R86H] | 0.586 | 1.23 | 0.517 | 0.424 | 0.46 | 0.407 | 0.782 | 1.12 | 0.559 | 0.589 | 1.18 | 0.864 | 0.588 | 1.29 | 1.02 | 0.804
9 | NPQKSYFIRLF [WAS_Y83_YF] | 0.501 | 1.4 | 0.583 | 0.457 | 0.579 | 0.464 | 0.754 | 1.09 | 0.5 | 0.453 | 1.21 | 0.692 | 0.58 | 1.2 | 0.945 | 0.701
10 | NTQRPYYKGGG [TYROBP_Y111] | 0.383 | 0.592 | 0.411 | 0.415 | 0.511 | 0.432 | 0.421 | 0.516 | 0.431 | 0.305 | 0.601 | 0.427 | 0.331 | 1.21 | 1.39 | 0.736
11 | NVTGHYISPFH [PPA2_Y59] | 0.493 | 0.542 | 0.325 | 0.563 | 0.459 | 0.362 | 0.422 | 0.552 | 0.486 | 0.448 | 0.492 | 0.92 | 0.423 | 0.852 | 1.11 | 1.14
12 | NYADPYRQLPY [CTNND2_Y503_Q507P] | 10.7 | 0.819 | 0.469 | 6.98 | 4.13 | 0.827 | 2.33 | 0.78 | 0.847 | 0.501 | 0.669 | 0.847 | 10.1 | 0.775 | 0.749 | 1.25
13 | NYDLDYDSVQP [MYC_Y16] | 1.96 | 1.63 | 1.09 | 0.493 | 0.74 | 1.18 | 1.03 | 3.13 | 0.78 | 0.659 | 1.39 | 1.02 | 1.19 | 0.804 | 0.532 | 1.26
14 | PADCRYFAFPQ [GAMT_Y222_YF] | 0.959 | 0.99 | 0.636 | 5.65 | 2.35 | 1.43 | 1.78 | 1.35 | 0.733 | 0.817 | 2.66 | 0.752 | 1.29 | 0.818 | 1.18 | 1.26
15 | PADCRYYTFPQ [GAMT_Y222_A224T] | 2.18 | 2.01 | 4.15 | 11 | 6 | 5.45 | 5 | 4.04 | 2.64 | 2.82 | 4.4 | 1.7 | 3.34 | 1.01 | 1.36 | 2.15
